One series has as its target cyclin B1/cdc2 (Homo sapiens, UniProt P14635). In words: in vitro kinase assay, pRB phosphorylation by cyclin B1/cdc2. The class given is biochemical. The note with it: peptide 18 μM.
In series [1] the target is PAP-cyclin B1 interaction (Homo sapiens, UniProt P14635). In words: GST-cyclin B1 pull-down assay of PAP binding.
Another series concerns the target cyclin A/cdk2 (Homo sapiens, UniProt P20248). Nature of the series: in vitro kinase assay, pRB phosphorylation by cyclin A/cdk2. The format is biochemical. The note with it: peptide 9 μM and 18 μM; for pRB phosphorylation by cyclin A/cdk2: γ-32P ATP, SDS-PAGE, autoradiography.
For series [2], the target named is cyclin D1-cdk2 association (Homo sapiens, UniProt P24385). In words: GST-cyclin D1 binding assay with cdk2. The settings on record: peptide 9 μM and 20 μM; Western blot. On the technique in general: In western blotting, separated proteins are transferred to a membrane and probed.
Another series relates to Wi38 cells. In words: DNA content by propidium iodide staining and FACS, Wi38 cells. The class given is cell-based, human.
Series [3] has as its system MEFs. In words: DNA content by propidium iodide staining and FACS, mouse embryo fibroblasts. The settings on record: MEFs with pRB, after one hour of treatment, duplicate. The format is cell-based.
A further series has as its system HaTCat cells. Nature of the series: DNA content by propidium iodide staining and FACS, HaTCat cells. The note with it: for S-phase population of cells: confluent (resting) HaTCat cells. The class given is cell-based, human. An excerpt:
A graphical representation of DNA content of cells as collected by propidium iodide staining and subsequent FACS analysis. G0/G1, S, and G2M phases are depicted of cells either treated or not treated with cell permeable peptides. The percentage of untreated cell in a given phase are in white, PAP's CRM in (SEQ ID NO: 3) black, p21's in gray (SEQ ID NO: 5), scrambled in horizontal stripes (SEQ ID NO: 4), internalization sequence alone in vertical stripes (SEQ ID NO: 2).
(A) PAP's CRM (SEQ ID NO: 3) kills growing HaTCats, but stimulates S-phase entry of stationary HaTCats. The bar graph depicts the fold induction over non-treated cells of sub-G1 DNA content and S-phase DNA content of four different populations of cells. The percentage of cells found S-phase of each population is noted below the bar graph. Sub-G1 DNA content and S-phase DNA content are depicted of cells either treated or not treated with cell permeable peptides. The percentages of untreated cell in a given phase are in white, PAP's CRM (SEQ ID NO: 3) in black, p21's in gray (SEQ ID NO: 5), and scrambled in stripes (SEQ ID NO: 4).
Panel B of FIG. 7 is a graphical representation of DNA content of cells, derived from propidium iodide staining and subsequent the fluorescence-activated cell sorter (FACS) analysis. In this experiment, an immortalized human karitinocyte cell line (HaTCat) was treated with the cell-membrane permeable form of PAP's CRM (SEQ ID NO:3). […] This is not observed with the scrambled sequence (SEQ ID NO:4), nor the p21 (SEQ ID NO:5) nor the penetratin sequence alone (SEQ ID NO:2).
FIG. 8 is a graphical representation of the fold induction, over untreated control cells, of sub-G1 DNA content and S-phase DNA content of four different populations of HaTCat cells. These populations vary in their proliferation rates due to their confluency, starting with the least confluent population of cells, with 30% in S-phase, to the most confluent population, with only 3.5% in S-phase. Cycling cells, with over 30% of cells in S-phase, die when treated with the SEQ ID NO:3.
(§1) After treatment with or without cell membrane permeable peptides (Synpep), cells were trypsinized, centrifuged and washed in PBS. Cell were than fixed with methanol and kept at −20° C. for 40 min or overnight. After washing and equilibration in PBS, the cell pellet was resuspended in 1 ml of staining solution containing 50 μg of RNase A and 0.5 μg of propidium iodide per ml in PBS, and kept at room temperature for over 30 minutes. The cells were then applied to the fluorescence-activated cell sorter (FACSCalibur; Becton Dickson). The FACSCalibur program was used to sort and count the cells, and the Modfit program was used to calculate the percentage of cells in the G0/G1, S, and G2/M phases.

The test system of series [4] is MEFs. In words: DNA content by propidium iodide staining and FACS, mouse embryo fibroblasts. The class given is cell-based. The note with it: sub-confluent MEFs; for percentage of cells with S-phase DNA content / percentage of cells with sub-G1 DNA content: one hour, SEQ ID NO:3 1.87-30 μM, controls 30 μM. Here is the method:
(A) PAP's CRM stimulates both the percentage of cells with sub-G1 DNA content and S-phase DNA content in a dose dependent manner. DNA content as measured by FACS analysis is graphically represented.
(B) PAP's CRM stimulates cell death over time. The percentage of cells with a sub-G1 DNA content with or without treatment with 30 μM of PAP's CRM (SEQ ID NO: 3) for varying lengths of time is shown.
(C) The percents of cells with G0/G1 (in black), S (in gray), and G2/M (in white) DNA contents of the same population of cells in (B) are depicted.
Panel A depicts the MEF's response to a concentration curve of SEQ ID NO:3. […] After a one hour incubation, cells were harvested for propidium iodine staining and subsequent FACS analysis.
To further study the MEF's reactions to the membrane permeable peptide, SEQ ID NO:3, and to determine if the increase in S-phase depicts a stimulation or inhibition of proliferation, treatment with one concentration was followed at varying time points. Sub-confluent MEFs were treated with 30 μM SEQ ID NO:3, harvested at different time points, and their DNA content was analyzed by propidium iodide staining and subsequent FACS analysis. FIG. 10 panel B depicts the percentage of death initiated over time, as measured by sub-G1 DNA content. 30% of the cells die after the first hour of treatment, 50% by the forth. […], depicts the cell cycle analysis over time of those cells that are not dying. Here, the stimulation of the cell cycle over time by SEQ ID NO:3, is clearly seen, ruling out an inhibitory effect. In the first hour, 25% of the cycling cells are induced into S-phase, and in time, into G2/M and back into G1.
as §1

The subject of the next series is pRB knock out MEFs. In words: DNA content by FACS, pRB knock out mouse embryo fibroblasts. The class given is cell-based. An excerpt: (A) A graphical representation of the fold induction of sub-G1 DNA content in cells with or without pRB, as indicated below the graph. […] (B) A graphical representation of the fold induction of S-phase DNA content in the same cells.
The ability of SEQ ID NO:3 to stimulate both death and proliferation in mouse embryo fibroblasts, allows us to test the model, wherein pRB inhibits cell death after treatment with SEQ ID NO:3, thereby allowing for stimulation of proliferation (FIG. 9). In the absence of pRB, cells would no longer have the anti-apoptotic activity of pRB, and treatment with SEQ ID NO:3 would lead only to cell death. In the experiment shown in FIG. 11, two genetically identical populations of cells were used, except that one was pRB minus, by way of knock out technology. The fold inductions of both sub-G1 and S-phase are represented in FIG. 11. Upon treatment with SEQ ID NO:3, here done in duplicate, the cells with pRB show at least a two-fold induction of S-phase after one hour of treatment. The cells without pRB show none, but therefore a dramatic (up to 50 fold) induction of death.
After treatment with or without cell membrane permeable peptides (Synpep), cells were trypsinized, centrifuged and washed in PBS. […] The cells were then applied to the fluorescence-activated cell sorter (FACSCalibur; Becton Dickson). […]
A general note: In flow cytometry, cells or beads pass a laser one at a time.

The record followed here is patent publication US6696546B1, “Peptide that kills growing but not stationary cells” (The Trustees of Columbia University in the City of New York, priority 2000, dated 2004).

Chain of PAP-cyclin B1 interaction (P14635 whole entry): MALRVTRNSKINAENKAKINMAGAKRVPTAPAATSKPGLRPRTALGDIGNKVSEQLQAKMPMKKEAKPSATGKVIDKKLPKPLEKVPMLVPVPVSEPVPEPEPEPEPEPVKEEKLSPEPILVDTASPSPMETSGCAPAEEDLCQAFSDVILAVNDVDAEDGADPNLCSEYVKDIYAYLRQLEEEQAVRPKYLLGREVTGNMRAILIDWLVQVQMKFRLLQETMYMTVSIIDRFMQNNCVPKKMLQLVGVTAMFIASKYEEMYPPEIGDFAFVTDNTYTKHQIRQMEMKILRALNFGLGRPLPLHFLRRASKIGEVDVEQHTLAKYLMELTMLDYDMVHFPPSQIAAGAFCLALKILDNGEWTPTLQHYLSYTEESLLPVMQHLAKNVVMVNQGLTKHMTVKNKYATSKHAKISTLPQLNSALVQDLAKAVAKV
Chain of cyclin B1/cdc2 (P14635 whole entry): as above
Chain of cyclin B1/cdc2 (P06493 whole entry partner): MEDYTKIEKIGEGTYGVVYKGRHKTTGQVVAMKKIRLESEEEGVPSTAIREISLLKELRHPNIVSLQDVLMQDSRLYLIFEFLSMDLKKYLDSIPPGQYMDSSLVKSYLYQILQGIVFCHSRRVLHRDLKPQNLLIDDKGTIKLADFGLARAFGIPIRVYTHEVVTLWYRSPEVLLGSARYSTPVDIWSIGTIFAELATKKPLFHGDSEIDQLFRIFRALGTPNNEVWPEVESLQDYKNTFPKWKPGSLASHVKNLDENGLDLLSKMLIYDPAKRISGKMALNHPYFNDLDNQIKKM

On to “SKIRILVG (poly(A) polymerase cyclin recognition motif) [SEQ ID NO:1, synthetic 8-mer peptide spanning PAP's cyclin recognition motif (CRM)]”, for which, in the series with cyclin B1/cdc2, the “cyclin B1 autophosphorylation” value is “not affected”; the “phosphorylation of pRB by cyclin B1/cdc2” value was “strongly and specifically inhibited”. Besides, the “PAP I-GST-cyclin B1 binding” value in [1] (2, 5, 10 and 20 μM peptide) is reported as “dose-dependent enhancement”. The “association of purified bacterial his-PAP I with GST-cyclin B1” value in series [1] (2, 10 and 20 μM peptide, Western blot with anti-PAP antibody) is listed as “strongly stimulated”. Further, the “input PAP bound to GST-cyclin B1” value in series [1] (highest peptide concentration, purified bacterial his-PAP I) was roughly 100%. The “cyclin A phosphorylation in the same reaction mixture” value with cyclin A/cdk2 (internal control for specificity) is reported as “not cyclin A phosphorylation”. Further, in the series with cyclin A/cdk2, the “pRB phosphorylation by cyclin A/cdk2” value is given as “effectively inhibited”. Further, the “presence of cdk2 in the eluate of GST-cyclin D1” value in series [2] was “significantly increased”.
In the case of “SEQ ID NO:3: 8-mer peptide (SEQ ID NO:1) fused to penetratin (SEQ ID NO:2); cell-membrane permeable form of PAP's CRM (RQIKIWFQNRRMKWKKSKIRILVG; poly(A) polymerase cyclin recognition motif fued to Drosohilia Antennapedia homeodomain residues)”, the “Wi38 death (sub-G1 DNA content)” value in the series on Wi38 cells (populations of varying confluency) is on record as “able to induce Wi38 death in a growth dependent manner”. Further, the “decrease in fold induction of sub G1 DNA content” value in the series on Wi38 cells (with the increase in confluency and decrease in growth) is recorded as 30 fold. For the same substance, the “fold induction of S-phase” value in the series with MEFs [3] is “two”; in the series with pRB knock out MEFs (MEFs without pRB, after one hour of treatment), “none”. Also, the “S-phase population of cells” value with HaTCat cells was “dramatic increase”. For the same substance, the “cell death (sub-G1 DNA content)” value is given as “die” in the series with HaTCat cells (cycling HaTCat cells, over 30% of cells in S-phase) and “cell death is in fact inhibited” in the series on HaTCat cells (most confluent HaTCat population, 3.5% in S-phase). The “cells that die (sub-G1 DNA content)” value with MEFs [4] (30 μM, after the first hour) was 30%; with MEFs [4] (30 μM, by the fourth hour), 50%. For the same substance, in the series with MEFs [4] (30 μM, in the first hour), the “cycling cells induced into S-phase” value was 25%. In addition, the “percentage of cells with S-phase DNA content” value in the series on MEFs [4] was “dramatically increased”. Besides, in the series with MEFs [4], the “percentage of cells with sub-G1 DNA content” value is given as “dramatically increased”. Besides, the “fold induction of death (sub-G1 DNA content)” value in the series with pRB knock out MEFs is reported as “up to 50 fold”.
For the substance “LRSGIKVI (scrambled sequence) [SEQ ID NO:4, fused to penetratin in cell tests, reference compound]”, the “S-phase population of cells” value with HaTCat cells was “not observed”. Also, in the series with MEFs [4], the “percentage of cells with S-phase DNA content” value is reported as “No effects” and the “percentage of cells with sub-G1 DNA content” value is on record as “No effects”. Moreover, the “pRB phosphorylation by cyclin A/cdk2” value with cyclin A/cdk2 is on record as “no effect”. Also, the “presence of cdk2 in the eluate of GST-cyclin D1” value in series [2] is recorded as “without significant effect”.
